# Tests used:
# Assay in all cases: cell-based or functional assay
# [1] = target: EE-GSK3β: human GSK3β with the EFMPME (EE) epitope tag at the N-terminus (human) (UniProt P49841)
# RPRTSSPA = target: RPRTSSPA
# PRTSSF = target: PRTSSF
# RPRTSAF = target: RPRTSAF
# Chain of EE-GSK3β: human GSK3β with the EFMPME (EE) epitope tag at the N-terminus (human) (P49841 other isoform, or with tags, fused parts or gaps): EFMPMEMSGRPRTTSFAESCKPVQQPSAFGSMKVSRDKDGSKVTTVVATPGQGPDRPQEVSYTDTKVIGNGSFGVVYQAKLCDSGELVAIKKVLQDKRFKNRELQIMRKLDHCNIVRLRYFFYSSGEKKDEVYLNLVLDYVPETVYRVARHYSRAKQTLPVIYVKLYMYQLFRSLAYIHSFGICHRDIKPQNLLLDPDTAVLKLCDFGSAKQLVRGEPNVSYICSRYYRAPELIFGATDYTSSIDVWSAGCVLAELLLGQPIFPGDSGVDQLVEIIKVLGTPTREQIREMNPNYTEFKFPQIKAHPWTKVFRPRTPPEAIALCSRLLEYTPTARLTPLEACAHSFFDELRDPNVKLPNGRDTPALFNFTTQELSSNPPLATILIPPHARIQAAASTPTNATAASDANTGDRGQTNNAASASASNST
Substance,increase in GSK3 activity on PP2A treatment after coexpression in 293 cells [1] [%],rate of phosphorylation (cell stands under Vmax; may belong to V (0.1 mM)) (RPRTSSPA),rate of phosphorylation (cell stands under Vmax; may belong to V (0.1 mM)) (PRTSSF),rate of phosphorylation (cell stands under Vmax; may belong to V (0.1 mM)) (RPRTSAF)
HA-308D/473D-RAC-PKα: constitutively active double mutant (Thr308 and Ser473 changed to Asp) (enzyme),85,–,–,–
HA-KD-RAC-PKα: kinase-dead HA-RAC-PKα in which Lys179 is mutated to Ala (enzyme),12,–,–,–
HA-RAC-PKα immunoprecipitated from IGF-1 stimulated 293 cells (enzyme),–,0,0,0
HA-RAC-PKα: haemagglutinin epitope-tagged wild-type human RAC-PKα (enzyme),68,–,–,–
